Article PMC12087662

Target: ATP6V1D (UniProt Q9Y5K8)
Experiment: in vitro binding, anti-Flag pull-down
Conditions: reference: wild-type ATP6V1B2-Flag; sites Y68

binding against the reference: weaker
Substance: ATP6V1B2 (from UniProt P21281) ATP6V1B2(Y68F)-Flag
